# Data taken from the DeepSol protein solubility set.
# Experiment: soluble on expression in E. coli; label from the status in PepcDB or PDB records
row,Sequence,soluble on expression in E. coli
1,MKKSLIAFILIFMLVLSGCGMKDNDKQGSNDNGSSKSPYHRIVSLMPSNTEILYELGLGKYIVGVSTVDDYPKDVKKGKKQFDALNLNKEELLKAKPDLILAHESQKATANKVLSSLEKQGIKVVYVKDAQSIDETYNTFKQIGKLTHHDKQAEQLVEETKDNIDKVIDSIPAHHKKSKVFIEVSSKPEIYTAGKHTFFNDMLEKLEAQNVYSDINGWNPVTKESIIKKNPDILISTEAKTRSDYMDIIKKRGGFNKINAVKNTRIEVVNGDEVSRPGPRIDEGLKELRDAIYRK,not soluble
2,MGHHHHHHSHMGKKIKKEVEPPPKDVFDPLMIESKKAATVVLMLNSPEEEILAKACEAIYKFALKGEENKTTLLELGAVEPLTKLLTHEDKIVRRNATMIFGILASNNDVKKLLRELDVMNSVIAQLAPEEEVVIHEFASLCLANMSAEYTSKVQIFEHGGLEPLIRLLSSPDPDVKKNSMECIYNLVQDFQCRAKLQELNAIPPILDLLKSEYPVIQLLALKTLGVIANDKESRTMLRDNQGLDHLIKILETKELNDLHIEALAVIANCLEDMDTMVQIQQTGGLKKLLSFAENSTIPDIQKNAAKAITKAAYDPENRKLFHEQEVEKCLVALLGSENDGTKIAASQAISAMCENSGSKDFFNNQGIPQLIQLLKSDNEEVREAAALALANLTTCNPANANAAAEADGIDPLINLLSSKRDGAIANAATVLTNMAMQEPLRLNIQNHDIMHAIISPLRSANTVVQSKAALAVTATACDVEARTELRNSGGLEPLVELLRSKNDEVRKHASWAVMVCAGDELTANELCRLGALDILEEVNVSGTRKNKFSEAAYNKLLNNNLSLKYSQTGYLSSSNIINDGFYDYGRINPGTKLLPLKEL,not soluble
3,MSLTEWLTIFDSERNTLGKKLRDEVHRDGNWHETFHCWFVEKDAEDMFLYFQLRSKNKKEAPLIWDITSAGHIMHDEDVQIGGLREIEEELGLSFQTTDLAYKGIFTIDYEISNLTDREFCHMYFHNVINPLPFAPGEEVDDVMKIHATSFLQLLKREISSFTATSVLSNKSITITFSDIYPYDFAYYEFVVEQGKELLKNNDEGHHHHHH,soluble
4,GSKESPLHGTQNTINKRTQPTFGFTVNWKFSESTTVFTGQCFIDRNGKEVLKTMWLLRSSVNDIGDDWKATRVGIMIFTRLRTQKEGGSGGSARKCSLTGKWTNDLGSNMTIGAVNSRGEFTGTYITAVT,soluble
5,MGSDKIHHHHHHMTQNVIEMKEITKKFGDFVANDHINLTVEKGEIHALLGENGAGKSTLMNMLAGLLEPTDGQIFINGQPVTIDSPSKSSQLGIGMVHQHFMLVEAFTVAENIVLGNETTQNGVLDIKTAAKEIKELSEKYGLSVNPNAKISDISVGAQQRVEILKTLYRGADILIFDEPTAVLTPSEIKELMTIMKSLVKEGKSIILITHKLDEIRAVADKVTVIRRGKSIETVPVAGASSQQLAEMMVGRSVSFRTEKKEANPTDIILSVKDLVVEENRGGVLAVKNLSLDVRAGEIVGIAGIDGNGQSELIQAITGLRKVTSGQIVIKGKDVTKFSSRQITELSVGHVPEDRHRDGLVLDMTMAENLALQTYYKEPLSHKGILNFAKIKEYARQLMTEFDVRGAGEHVLARGFSGGNQQKAIIAREVDRDPDLLIVSQPTRGLDVGAIEYIHKRLIEERDKGKAVLVVSFELDEILNLSDRIAVIHDGKIQGIVKPDQTNKQELGILMAGGKIEKEERDV,not soluble
6,MVMNRSSPHGGGVAAGDGGGRPLRPGHFPLRPLRGHLPPGGRIFALALAVALPVQAETLASRAPETVAITLYRDGDGPFQAMSPWVRQQARDKGLVLVTETRTVDLPAGRHTLRFDGVAEGLIPQSAAVEGLPGKAVERNYDYALLSPGTLVERSLGQPIKVVRTNRKTGRQQTVDATLIQGPYGLMVRTAEGVEALGCSGGAERLVLGAVPEGLTDKPSLSTIVEVPAPTRAKLTVSYLALGVNWQADYVARIHPDGQRLDLTGWLTLVNSGGSQFADAKTQAVAGKLSRKPVRVDKGEARSIHRACWPMDTTHYGQEPPPPPAPPPPLPIPMMSAAPMARAGAEEIAVTGARAKLAEQSNLGDYKLYTLPEPVTLNARQTKQVAFLDQKDVAFQRLYAVEMDSYDDYDNADWPLIIPDVVLRLENKTANGLGKPLPSGALSAIETAGGRPTFAGEQAVRDVAVGEPLDLVIGRAMDVHARPRLVEERTLSKGRVRRTYELDLANAKTVPITVEIRHDPTAPYFKLVSEPQKHDIRQGQVAWRVTLPAGERRSFRYAVAFGR,not soluble
7,MRFFYDTEFIEDGETIDLVSIGIVCEDGREYYAVSTDADHSRANKWVRDNVLDKMPNPSSTLWKSNATIRQEVYEFLTSTPGNTELWAWVGAYDHVVLAQLWGDMRGLPKELPRYTHELKQYWEMAGRPRLPKLPEGNHDALVDARHNLQKFKICAESLPLNKRNVVNR,not soluble
8,MGHNDELIRNKSAFASEMSDAAAIVQYADKNSLVVLDELARSTSTEEGIAITYAICEKVLKLHSYTFLATHFLDIAALANYSNAIDNYHFLPQIDDNSTKKHKLLRG,not soluble
9,MSEISVTQTLDTLGLRCPEPVMLVRKNIRHLNDGEILLIIADDPATTRDIPSFCQFMDHTLLQCEVEKPPFKYWVKRGK,not soluble
10,MRILIASQPIAGHVLPLREIARELARRGHELRWYTGRKFRPQVEAAGAVWEGFVHARDYDDANFDAAFPGRSARRGLAQLLFDLRHVFVGQMEGQFYDLRDLERRWRPDVVLADQTVGAALLREELGGPPVALLGVLPLGIASRDTAPFGLGLAPLGGAAGQLRNRALQVLTERVVFRGISAQLADLCTWLGLPARSFAPPVAPSLMLQPSVPRLEYLRRDLPPQVRFIGPLVLPAGEFTPPAWWNDILTAERPVVLVTQGTLATRPEQLLRPALAALADEDVLVVAAGVAPERLGPLPANARAAAFVPFTALLPHVAVSLTNGGYGGTVQALSHGVPCVVAGRSEDKAEVAARVAYSGAGLNLGTATPSPARIRAAVRRVLREPAFREQAGELGHELRQHDAPREAADWLETLGGKKLEHHHHHH,not soluble
11,MKMTSRKLSDILKKRLQNDSWSFHFDREKDSLRIEDKNTGKGITLELPGIIAKWEQKKDDAIDEVVYYTEEALNAMKGQSQEMEGRESLIYPVIRSTSFPEKSSAGVPLVFDGHTAETRIYYALDLGNTYRLIDEKMLEKEGWTKERIRETASFNLRSLQTVVKEDEVAGNHFYFFRANDGYDASRVLNESILAEYEKNAEGTLAVSIPHQDVLIIADIRNNAGYDILGQMSMSFFANGTVPITALSFLYEDGKLEPIFILAKNRPKK,not soluble
12,MTVYFIGAGPGAADLITVRGQRLLQRCPVCLYAGSIMPDDLLAQCPPGATIVDTGPLTLEQIVRKLADADADGRDVARLHSGDPSLYSALAEQCRELDALGIGYEIVPGVPAFAAAAAALKRELTVPGVAQTVTLTRVATLSTPIPPGEDLAALARSRATLVLHLAAAQIDAIVPRLLDGGYRPETPVAVVAFASWPQQRTLRGTLADIAARMHDAKITRTAVIVVGDVLTAEGFTDSYLYSVARHGRYAQ,not soluble
13,MKDVVIVGALRTPIGCFRGALAGHSAVELGSLVVKALIERTGVPAYAVDEVILGQVLTAGAGQNPARQSAIKGGLPNSVSAITINDVCGSGLKALHLATQAIQCGEADIVIAGGQENMSRAPHVLTDSRTGAQLGNSQLVDSLVHDGLWDAFNDYHIGVTAENLAREYGISRQLQDAYALSSQQKARAAIDAGRFKDEIVPVMTQSNGQTLVVDTDEQPRTDASAEGLARLNPSFDSLGSVTAGNASSINDGAAAVMMMSEAKARALNLPVLARIRAFASVGVDPALMGIAPVYATRRCLERVGWQLAEVDLIEANEAFAAQALSVGKMLEWDERRVNVNGGAIALGHPIGASGCRILVSLVHEMVKRNARKGLATLCIGGGQGVALTIERDE,soluble
14,MIGRVFRIFREKGGILKALGLWEWYENLPHKYQKKVKHYYSLKTIKSINFPYKAKHFDTGEVENVLYTKRTFLGTIAQTALLEGDLEFAEWLYNEALKMEGSPYEAHLILNDLVLLAQKQRDLEKVKKYVLQDVELYPEYKEELKSRWGGTLPQIMAFEIYVYLLEREGKIKEALELVEWIKKEGITYPYYDQVKERLLQKLK,not soluble
15,MKYDWILFDADETLFHFDAFKGLQLMFSRKGVDFTEQDFAHYQTVNKPLWVDYQDGKVTADELKHKRFTEWAEKLNTTTADLNSAFLEAMADICS,not soluble
16,MTTSTKLVELLYQLEAQLQKHELWQQTMPSPEALQSVEPFAIDTLDPHEWLQWIFIARMHALVESSQPLPRGFSIEPYFAEVWKQEPQYAELLNTIRTIDELCKLEHHHHHH,not soluble
17,QQEYMKVGKFSPESNRSRWLVTRGATMTTKDTTRNMTMNTNLGGYQVLEIFRKLETPEAVTAFEGLSIPEPGLEPRFCVREGEQEVPVTTRYTDEAFWQVFDFSFVAGKHYTEADARSNIAVAVITDRLARRFFGSSSEAVGRQALINGRKYTVCGVVRHVTPFCDFAYGDVWMPVFRLYEERVKNNLFSRFNVICLAKSPKDFDAIKEEVGALTAKCNSVQEKFNISFPGQPADQFTTMHRKFHRDDTEPLEYRRR,not soluble
18,MAHHHHHHMKRWRTANLFTPAEVQHAFAALHRNAEALYSVSGTSSPLGPFVCRRGGARRHRRDHIELPLRHMYEAKTVYEQLPVEVRLICAGLYEAALGYAQEALREPGVSSAARDGILSNLGRNSVLRVLRYPAGSGCRPHVDPGLCTALLVGSAGGLEMSTTDAVLTPFASGPGHNTAHFVSSPTSMRGEAATMPGTLPHWEPVLTAHTGEAVVMAGNMLGAVSGGALPGVLHRVRRDWVAETPRTDGQRSPPLHAACVGGGADAEVDAGSGVFRFNVIVELRPAHAKRWYAATSGQSQLSSASSPSSLA,not soluble
19,MTNTSFDNSTIVVGVAGGIAAYKSCHVVRGFKEDGANVVVVPTSAALNFVGKATFEALSGNPVSTTVFDAVDEVRHVNVGQHADLIVVAPATADLIARVAMGRADDLLTATLLVATCPIVLVPAMHAEMWSNAATRENVATLRRRGIIVMDPAHGRLTGADTGPGRLPDSDQIIDFAKTVARTKVMPRDLVGKKVL,not soluble
20,MTPWLGLIVLLGSWSLGDWGAEACTCSPSHPQDAFCNSDIVIRAKVVGKKLVKEGPFGTLVYTIKQMKMYRGFTKMPHVQYIHTEASESLCGLKLEVNKYQYLLTGRVYDGKMYTGLCNFVERWDQLTLSQRKGLNYRYHLGCNCKIKSCYYLPCFVTSKNECLWTDMLSNFGYPGYQSKHYACIRQKGGYCSWYRGWAPPDKSIINATDP,not soluble
21,MSLTVDFSRFPLAPGDRVLDLGCGAGRHAFECYRRGARVVALDQNAEEIREVAKWFAAMEEAGEAPAGATATAMEGDALALPFPDESFDVVIISEVMEHIPDDKGVLAEMVRVLKPGGRIAITVPRYGPEKVCWTLSDAYHEVEGGHIRIYRADQLLTRIREAGLKPYGTHHAHALHSPYWWLKCAFGVDNDKALPVRAYHKLLVWDIMKKPLATRVAEQALNPLIGKSFVAYATKPHLPPVDAEGHHHHHH,soluble
22,MEKETKEKIEKTVIEILSESDMKEITEFKVRKLASEKLAIDLSEKSHKAFVRSVVEKFLDEERAREYENSQVNKEEEDGDKDCGKGNKEFDDDGDLIICRLSDKRRVTIQEFKGKSLVSIREYYKKDGKELPTSKGISLTDEQWSTFKKNMPAIENAVKKMESRV,soluble
23,MEYRMFDIGVNLTSSQFAKDRDDVVACAFDAGVNGLLITGTNLRESQQAQKLARQYSSCWSTAGVHPHDSSQWQAATEEAIIELAAQPEVVAIGECGLDFNRNFSTPEEQERAFVAQLRIAADLNMPVFMHCRDAHERFMTLLEPWLDKLPGAVLHCFTGTREEMQACVAHGIYIGITGWVCDERRGLELRELLPLIPAEKLLIETDAPYLLPRDLTPKPSSRRNEPAHLPHILQRIAHWRGEDAAWLAATTDANVKTLFGIAF,soluble
